“And” between values parts separate entries of the source, which are not always exact repeats. Equal values may be shown once.
B1: tcTRP9_(3)-VHH678_(3) (VHH)
VHH: QVQLQESGGGLVQAGGSLRLSCAASGRTFSEYAMGWFRQAPGKEREFVATISWSGGSTYYTRSVKGRFTISRDNAKNTVYLQMNSLKPDDTAVYYCAAAGLGTVVSEWDYDYDYWGQGTQVTVSS
notes: also called tcTRP9x3_VHH6783; construct 678; source: E. coli BL21(DE3)-RIL, purified (Ni-NTA, dialysis into 1x PBS)
B2: tcTRP9_(3)-VHH683_(3) (VHH)
VHH: B1 VHH
notes: also called tcTRP9x3_VHH6833; construct 683; source: E. coli BL21(DE3)-RIL, purified (Ni-NTA, dialysis into 1x PBS)
B3: tcTRP9_(3)-VHH681_(3) (VHH)
VHH: B1 VHH
notes: also called tcTRP9x3_VHH6813; construct 681; source: E. coli BL21(DE3)-RIL, purified (Ni-NTA, dialysis into 1x PBS)
B4: tcTRP9_(3)-VHH3 construct 680 (trimeric tcTRP9_(3) with VHH 72D61R on each subunit) (VHH)
VHH: B1 VHH
notes: also called tcTRP9x3-VHH3; Trimeric VHH 72D61R; source: E. coli, purified (Ni-NTA, dialysis into 1x PBS)
B5: tcTRP9x3_VHH685_(3) (VHH)
VHH: B1 VHH
notes: also called construct 685; source: E. coli BL21(DE3)-RIL, purified (Ni-NTA, dialysis into 1x PBS)
B6: tcTRP9_(3)-VHH682_(3) (VHH)
VHH: B1 VHH
notes: also called tcTRP9x3_VHH6823; construct 682; source: E. coli BL21(DE3)-RIL, purified (Ni-NTA, dialysis into 1x PBS)
B7: tcTRP9_(3)-VHH680_(3) (VHH)
VHH: B1 VHH
notes: also called tcTRP9x3_VHH6803; construct 680; source: E. coli BL21(DE3)-RIL, purified (Ni-NTA, dialysis into 1x PBS)
B8: tcTRP9_(3)-VHH684_(3) (VHH)
VHH: B1 VHH
notes: also called tcTRP9x3_VHH6843; construct 684; source: E. coli BL21(DE3)-RIL, purified (Ni-NTA, dialysis into 1x PBS)
B9: tcTRP9_(3)-VHH681_(3) (trimeric tcTRP9_(3) with VHH 72D61R on each subunit, construct 681) (VHH)
VHH: B1 VHH
notes: also called tcTRP9_(3)-VHH3; tcTRP9x3-VHH3; source: E. coli, purified (Ni-NTA, dialysis into 1x PBS)
B10: tcTRP9_(3)-VHH679_(3) (VHH)
VHH: B1 VHH
notes: also called tcTRP9x3_VHH6793; construct 679; source: E. coli BL21(DE3)-RIL, purified (Ni-NTA, dialysis into 1x PBS)

Experiments:
Conditions in all cases: both partners purified
[1] = target: T1, SARS-CoV-2 spike protein receptor-binding domain (RBD) (SARS-CoV-2, strain  …, UniProt P0DTC2); assay: ELISA
T1 construct: also called SARS-CoV-2 RBD; SARS RBD; source: provided by Roland Strong, Fred Hutchinson Cancer Research Center

[2] = target: enzymatically biotinylated SARS-CoV-2 spike protein receptor-binding domain (RBD) (SARS-CoV-2, strain  …, UniProt P0DTC2)
[3] = target: T2, SARS-CoV-2 spike protein receptor-binding domain (RBD), coated on ELISA plates (SARS-CoV-2, strain  …, UniProt P0DTC2); assay: ELISA
T2 construct: also called SARS-CoV-2 RBD; SARS-CoV2 RBD; source: provided (Roland Strong, Fred Hutchinson Cancer Research Center)

[4] = target: enzymatically biotinylated SARS-CoV-2 RBD, loaded on streptavidin biosensors (SARS-CoV-2, strain  …, UniProt P0DTC2)

Binder | EC50 [1] [nM] | other results
B1 | 2.06 | 
B2 | 2.69 | 
B3 |  | koff [2]: 3.98e-05 s⁻¹
B4 |  | EC50 [3]: 12 nM
B5 | 1.88 | 
B6 | 4.65 | 
B7 | 8.01 | 
B8 | 1.89 | 
B9 |  | Kd [4]: ~0.43 nM; EC50 [3]: 0.4 nM and ~0.64 nM
B10 | 5.52 | 
